Data as given in patent US20110177071A1 (PERSEID THERAPEUTICS, published 2011).
Changes are numbered by the printed parent chain.

T1: human CD86-murine Ig fusion protein (human)
T1 construct: Bought (Ancell #509-820); also called hCD86-mIg
T1 chain: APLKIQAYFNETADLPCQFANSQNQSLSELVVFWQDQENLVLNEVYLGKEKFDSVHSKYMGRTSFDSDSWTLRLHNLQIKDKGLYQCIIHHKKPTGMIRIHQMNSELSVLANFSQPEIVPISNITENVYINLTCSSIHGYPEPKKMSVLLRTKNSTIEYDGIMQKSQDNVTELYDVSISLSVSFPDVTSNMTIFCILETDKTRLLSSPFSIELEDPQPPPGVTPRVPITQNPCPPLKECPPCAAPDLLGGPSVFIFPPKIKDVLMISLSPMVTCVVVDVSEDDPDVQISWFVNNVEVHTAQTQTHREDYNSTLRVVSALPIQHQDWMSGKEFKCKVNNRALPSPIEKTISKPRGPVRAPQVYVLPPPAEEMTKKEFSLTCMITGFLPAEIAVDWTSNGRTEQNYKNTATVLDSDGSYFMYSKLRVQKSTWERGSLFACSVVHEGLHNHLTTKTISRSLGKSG

T2: full-length human CD86 on HEK293 cells (human, UniProt P42081 24-329)
T2 sequence: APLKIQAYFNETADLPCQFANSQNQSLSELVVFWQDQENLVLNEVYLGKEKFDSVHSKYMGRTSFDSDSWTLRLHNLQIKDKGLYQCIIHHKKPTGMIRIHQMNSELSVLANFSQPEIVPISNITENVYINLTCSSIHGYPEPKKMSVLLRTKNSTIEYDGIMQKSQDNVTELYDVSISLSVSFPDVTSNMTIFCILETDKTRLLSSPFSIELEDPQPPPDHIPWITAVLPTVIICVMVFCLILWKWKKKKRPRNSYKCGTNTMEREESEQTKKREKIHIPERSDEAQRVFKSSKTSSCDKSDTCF

T3: human CD80-murine Ig fusion protein (human)
T3 construct: Bought (Ancell #510-820); also called hCD80-mIg; human CD80-murine IgG
T3 chain: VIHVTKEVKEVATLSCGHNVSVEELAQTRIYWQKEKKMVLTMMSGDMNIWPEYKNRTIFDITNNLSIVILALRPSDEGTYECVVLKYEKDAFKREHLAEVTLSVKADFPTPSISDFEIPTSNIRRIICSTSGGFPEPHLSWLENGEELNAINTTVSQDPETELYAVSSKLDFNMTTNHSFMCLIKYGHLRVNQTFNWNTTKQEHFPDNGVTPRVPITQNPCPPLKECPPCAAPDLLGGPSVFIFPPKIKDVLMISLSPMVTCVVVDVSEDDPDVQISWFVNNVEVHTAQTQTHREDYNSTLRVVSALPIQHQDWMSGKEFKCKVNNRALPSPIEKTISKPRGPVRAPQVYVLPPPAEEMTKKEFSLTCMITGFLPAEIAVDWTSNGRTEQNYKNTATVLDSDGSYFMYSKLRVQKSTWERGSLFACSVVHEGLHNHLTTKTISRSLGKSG

B1: D2-IgG2 (Fc fusion)
chain: MHVAQPAVVLASSRGIASFVCEYESPHKANEIRVTVLRQANSQVTEVCAMTYMKGDELTFLDDPFCTGTFSGNQVNLTIQGLRAADTGLYICKVELMYPPPYYLGMGNGTQIYVIDPEPCPDSDERKCCVECPPCPAPPVAGPSVFLFPPKPKDTLMISRTPEVTCVVVDVSHEDPEVQFNWYVDGVEVHNAKTKPREEQFNSTFRVVSVLTVVHQDWLNGKEYKCKVSNKGLPAPIEKTISKTKGQPREPQVYTLPPSREEMTKNQVSLTCLVKGFYPSDIAVEWESNGQPENNYKTTPPMLDSDGSFFLYSKLTVDKSRWQQGNVFSCSVMHEALHNHYTQKSLSLSPG
B2: D3-2-IgG2 (Fc fusion)
chain: B1 chain with H27G, N30T, N41G, F65S, M106F
notes: also called D3-02-IgG2; D3-02
B3: D3-3-IgG2 (Fc fusion)
chain: B1 chain with H27G, I32V, N41G, F65S, M106F
notes: also called D3-03-IgG2
B4: D3-6-IgG2 (Fc fusion)
chain: B1 chain with H27G, N41G, K54M, F65S, M106F
notes: also called D3-06-IgG2
B5: D3-15-IgG2 (Fc fusion)
chain: B1 chain with H27G, N41D, F65S, A85M, M106F
B6: D3-23-IgG2 (Fc fusion)
chain: B1 chain with H27G, N41D, D56N, F65S, M106F
B7: D3-24-IgG2 (Fc fusion)
chain: B1 chain with H27G, N41G, D56N, F65S, A85M, M106F
B8: D3-25-IgG2 (Fc fusion)
chain: B1 chain with H27G, N41G, D56N, F65S, M106I
B9: D3-26-IgG2 (Fc fusion)
chain: B1 chain with E24A, H27G, N41D, D56N, F65S, A85M, M106I
B10: D3-28-IgG2 (Fc fusion)
chain: B1 chain with H27G, N41D, D56N, F65I, A85M, M106I
B11: D3-30-IgG2 (Fc fusion)
chain: B1 chain with H27G, N41D, F65I, A85M, M106I
B12: D3-32-IgG2 (Fc fusion)
chain: B1 chain with H27G, Q39K, N41D, F65S, M106I
B13: D3-33-IgG2 (Fc fusion)
chain: B1 chain with H27G, Q39K, N41D, G55E, F65S, M106I
B14: D3-66-IgG2 (Fc fusion)
chain: B1 chain with E24A, H27G, I32V, N41D, F65I, A85M, L104E, M106I
B15: D3-74-IgG2 (Fc fusion)
chain: B1 chain with E24A, H27G, N41D, D56N, F65I, A85M, L104E, M106I
B16: D3-76-IgG2 (Fc fusion)
chain: B1 chain with E24A, H27G, I32V, N41D, G55E, F65I, A85M, M106I
B17: D4-IgG2 (Fc fusion)
chain: B1 chain with E24S, H27G, N30D, N41S, K54E, F65T, A85V, M106F
notes: also called clone D4
B18: D5-IgG2 (Fc fusion)
chain: B1 chain with E24A, H27G, N30T, I32V, N41D, M50A, K54M, F65I, A85M, M106I
B19: D6-IgG2 (Fc fusion)
chain: B1 chain with E24A, H27G, N30T, N41D, K54M, F65I, A85M, M106I
B20: D20-IgG2 (Fc fusion)
chain: B1 chain with N30T, N41D, K54M, G55E, F65I, A85M, M106I
B21: D21-IgG2 (Fc fusion)
chain: MHVAQPAVVLASSRGIASFVCEYSAPHNADEIRVTVLRKASSQVTEVCAMTYMEEDELTFLDDPTCTGTFSGNQVNLTIQGLRAVDTGLYICKVELMYPPPYYLGFGNGTQIYVIDPEPCPDSDERKCCVECPPCPAPPVAGPSVFLFPPKPKDTLMISRTPEVTCVVVDVSHEDPEVQFNWYVDGVEVHNAKTKPREEQFNSTFRVVSVLTVVHQDWLNGKEYKCKVSNKGLPAPIEKTISKTKGQPREPQVYTLPPSREEMTKNQVSLTCLVKGFYPSDIAVEWESNGQPENNYKTTPPMLDSDGSFFLYSKLTVDKSRWQQGNVFSCSVMHEALHNHYTQKSLSLSPG
B22: D23-IgG2 (Fc fusion)
chain: B21 chain with D30A, S41G, E54K, T65S, V85A, F106L
B23: D24-IgG2 (Fc fusion)
chain: B1 chain with H27G, Q39K, N41G, G55E, F65S, M106L
B24: D26-IgG2 (Fc fusion)
chain: B1 chain with S25A, I32V, Q39E, N41G, K54V, G55E, F65S, M106L
B25: D27-IgG2 (Fc fusion)
chain: B1 chain with H27G, I32V, Q39E, N41G, K54V, G55E, F65S, M106L
B26: D28-IgG2 (Fc fusion)
chain: B1 chain with S25A, I32V, N41G, K54M, G55E, F65S, M106L
B27: D29-IgG2 (Fc fusion)
chain: B21 chain with S24E, N28K, S41D, E54M, T65S, V85M, F106L
B28: D31-IgG2 (Fc fusion)
chain: B21 chain with S24E, K39Q, S41G, E54V, D63K, P64S, T65I, V85M, F106I

Columns and labels:
[1] = target: T1, human CD86-murine Ig fusion protein; experiment: SPR Biacore, hCD86-mIg captured
Method: (§1) All Biacore™ analyses were performed on a Biacore™ 2000 system (GE Healthcare) at room temperature (RT, 25° C.). HBS-EP buffer (10 mM HEPES (pH 7.4), 150 mM NaCl, 3 mM EDTA, 0.005% surfactant P20) was used as the flow buffer for all experiments.
(§2) Rabbit anti-mouse IgG antibody (GE Healthcare, #BR-1005-14) was immobilized on CM5 sensor chips (GE Healthcare, #BR-1000-14) according to the manufacturer's protocol. Antibody was diluted to 30 μg/ml in immobilization buffer (10 mM sodium acetate, pH 5.0 (BR-1003-51)). At a flow rate of 5 μl/minute, sensor chip CM5 was activated with a 35 μl injection of a mixture of 1-Ethyl-3-[3-dimethylaminopropyl]carbodiimide hydrochloride (EDC) and N-hydroxysuccinimide (NHS) (made by mixing equal volumes of 11.5 mg/ml EDC and 75 mg/ml NHS) (GE Healthcare, #BR-1000-50), followed by a 35 μl injection of undiluted antibody. Un-reacted sites were quenched with 35 μl of 1M ethanolamine-HCL, pH 8.5 (GE Healthcare, #BR-1000-50). […] CTLA-4 ligands human CD80-murine Ig (hCD80-mIg) (Ancell, #510-820) or human CD86-murine Ig (hCD86-mIg) (Ancell, #509-820) were bound to antibody-coated sensor chips by injection of 10 μl or 16 μl, respectively, ligand solution (2 μg/ml protein in HBS-EP buffer [10 mM HEPES pH 7.4, 150 mM NaCl, 3 mM EDTA, 0.005% (v/v) surfactant P-20, GE Healthcare, #BR-1001-88]) at a flow rate of 10 μl/min.

[2] = target: T2, full-length human CD86 on HEK293 cells; experiment: cell-based or functional assay
[3] = target: T3, human CD80-murine Ig fusion protein; experiment: SPR Biacore, hCD80-mIg captured
Method: as §1, §2

Binder | Kd [1] [nM] | Mean IC50 (nM), CD4+ T cell proliferation [2] [nM] | Binding Avidity (Relative to Orencia) [3] [fold] | Kd [3] [nM] | Binding Avidity (Relative to Orencia) [1] [fold]
B1 | 0.131 to 0.262 | 0.03 | > 2 | < 0.439 | 
B2 | 0.131 to 0.262 | 0.03 |  | 0.439 to 1.75 | 
B3 | 0.131 to 0.262 | 0.04 |  | 0.439 to 1.75 | 
B4 | 0.131 to 0.262 | 0.05 |  | 0.439 to 1.75 | 
B5 | < 0.131 | 0.02 |  | 0.439 to 1.75 | > 40
B6 | 0.131 to 0.262 |  |  | 0.439 to 1.75 | 
B7 | 0.131 to 0.262 |  |  | 0.439 to 1.75 | 
B8 | 0.131 to 0.262 |  |  | 0.439 to 1.75 | 
B9 | 0.131 to 0.262 |  |  | 0.439 to 1.75 | 
B10 | 0.262 to 0.523 |  |  | 0.439 to 1.75 | 
B11 | 0.131 to 0.262 |  |  | 0.439 to 1.75 | 
B12 | < 0.131 |  |  | 0.439 to 1.75 | > 40
B13 | < 0.131 |  |  | 0.439 to 1.75 | > 40
B14 | < 0.131 |  | > 2 | < 0.439 | > 40
B15 | < 0.131 |  | > 2 | < 0.439 | > 40
B16 | < 0.131 |  |  | 0.439 to 1.75 | > 40
B17 | 0.523 to 2.65 |  |  | 0.439 to 1.75 | 
B18 | 0.523 to 2.65 |  |  | 0.439 to 1.75 | 
B19 | 0.523 to 2.65 |  |  | 0.439 to 1.75 | 
B20 | 0.131 to 0.262 |  |  | 0.439 to 1.75 | 
B21 | 0.131 to 0.262 |  |  | 0.439 to 1.75 | 
B22 | < 0.131 |  | > 2 | < 0.439 | > 40
B23 | < 0.131 |  |  | 0.439 to 1.75 | > 40
B24 | < 0.131 |  |  | 0.439 to 1.75 | > 40
B25 | < 0.131 |  |  | 0.439 to 1.75 | > 40
B26 | < 0.131 |  |  | 0.439 to 1.75 | > 40
B27 | < 0.131 |  |  | 0.439 to 1.75 | > 40
B28 | 0.131 to 0.262 |  |  | 0.439 to 1.75 | 
